Test: Determination of q by luminescence lifetime measurements
Type: physicochemical
Conditions: emission 544 nm, excitation 229 nm, 25 scans averaged, monoexponential fit

Going from Tb(III)-DOTA-Arg8 [compound 10] to Tb(III)-DOTA-SS-Arg8 [compound 12], the “kD2O (luminescence decay rate in D2O)” value rises from 0.315 ms^−1 to 0.397 ms^−1.

Going from Tb(III)-DTPA-Arg8 [compound 11] to Tb(III)-DTPA-SS-Arg8 [compound 13], the “kD2O (luminescence decay rate in D2O)” value rises from 0.331 ms^−1 to 0.390 ms^−1.

First: Tb(III)-DOTA-Arg8 [compound 10]
Second: Tb(III)-DOTA-SS-Arg8 [compound 12]
The “kH2O (luminescence decay rate in H2O)” value of the first is lower: 0.566 ms^−1 for the first, 0.644 ms^−1 for the second.

First: Tb(III)-DTPA-Arg8 [compound 11]
Second: Tb(III)-DTPA-SS-Arg8 [compound 13]
The “kH2O (luminescence decay rate in H2O)” value of the first is lower: 0.635 ms^−1 for the first, 0.671 ms^−1 for the second.

Source: article PMC2650427 (Bioconjugate chemistry, 2008)
